Assay results as given in patent US20180346600A1 (AJOU UNIVERSITY INDUSTRY ACADEMIC COOPERATION FOUNDATION, published 2018).

T1: displayed FcCH3A, W-VT (K409W), on yeast cell surface (human, UniProt P0DOX5 227-449 = IgG part)
T1 construct: EU 226 and 229 counted from the entry's start at EU 225; also called W-VT CH3A chain (yeast)
T1 Fc: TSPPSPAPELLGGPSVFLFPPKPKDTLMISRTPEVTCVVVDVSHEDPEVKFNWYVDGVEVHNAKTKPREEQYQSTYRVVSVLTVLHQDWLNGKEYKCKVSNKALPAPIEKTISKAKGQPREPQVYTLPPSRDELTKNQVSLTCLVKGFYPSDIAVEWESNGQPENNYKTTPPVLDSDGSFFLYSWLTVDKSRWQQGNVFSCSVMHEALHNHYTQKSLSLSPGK


What was measured:
[1] = molecular target: T1, displayed FcCH3A, W-VT (K409W), on …; test: flow cytometry histogram (PE, FL2-H) of diploid yeast: Flag-tagged secreted FcCH3B held on displayed FcCH3A, anti-Flag mouse mAb and PE anti-mouse antibody
Description: Specifically, the diploid in which the expression of the heterodimeric heavy chain constant region was induced was reacted with an antibody recognizing flag-tag included in the secreted FcCH3B (anti-Flag mouse mAb, F3165) (Sigma-Aldrich) and an antibody conjugated with PE (phycoerythrin conjugated anti-mouse mAb, sc-3738) (Santa Cruz biotechnology), and a signal of PE was analyzed by flow cytometry.

[2] = molecular target: the molecule itself; test: HEK293-F co-expression, Protein A purification, non-reducing SDS-PAGE densitometry
Description: The CH3 domain mutant pair of the individual clones selected from the LibA2 and LibB2 libraries in Example 8 above was cloned into an animal cell expression vector so that the CH3A mutant was expressed into the scFv-FcCH3A format and the CH3B mutant was expressed into the FcCH3B format.
The EW-RVT and A107_{w/oW-VT}, B168_{w/oW-VT} mutant pairs were used as control groups.

[3] = molecular target: the molecule itself; test: as above; remark: listed apart in the source
Description: The pcDNA3.1 (+)-scFv-FcCH3A and pcDNA3.1 (+)-FcCH3B animal cell expression vectors that were constructed using the HEK293-F system (Invitrogen) were used to produce antibodies by transient transfection, and the heterodimer formation ability was compared. Specifically, a mixture of an expression vector and polyethylenimine (PEI) (Polyscience) was transfected into HEK293-F cells (Invitrogen) that were suspension-grown on a serum-free FreeStyle 293 expression medium (Invitrogen) in a shaking flask (Corning). When transfecting 30 ml of the mixture in the shaking flask, HEK293-F cells were seeded at a density of 1.0×10⁶ cell/ml in 30 ml of medium and cultured at 125 rpm and 8% CO₂. […] Then, the reacted mixed medium was added to 30 ml of the previously seeded cells and cultured at 125 rpm and 8% CO₂ for 6 days. The cell culture supernatant collected with reference to the standard protocol was applied to Protein A Sepharose column (GE healthcare), washed with PBS (pH 7.4). The antibody was eluted at pH 3.0 with 0.1 M glycine buffer and immediately neutralized with 1 M Tris buffer. The eluted antibody fraction was concentrated using an Amicon Ultra (MILLIPORE) centrifugal concentrator after the buffer was exchanged with PBS (pH 7.4) using a Dextran Desalting Column (Thermo Scientific Pierce). The purified antibody was quantified by BCA technique.
The W-VT and EW-RVT mutants were used as control groups.

Row | Binder | binding result [1] | (FC)2 (homodimer)(%) [2] | (Fc)2 (homodimer) (%) [3]
1 | secreted FcCH3B, W-VT (D399V/F405T), from yeast (other, also called W-VT CH3B chain (yeast); not shown: flag-tag) TSPPSPAPELLGGPSVFLFPPKPKDTLMISRTPEVTCVVVDVSHEDPEVKFNWYVDGVEVHNAKTKPREEQYQSTYRVVSVLTVLHQDWLNGKEYKCKVSNKALPAPIEKTISKAKGQPREPQVYTLPPSRDELTKNQVSLTCLVKGFYPSDIAVEWESNGQPENNYKTTPPVLVSDGSFTLYSKLTVDKSRWQQGNVFSCSVMHEALHNHYTQKSLSLSPGK | binds | – | –
2 | FcCH3B, B240 (D399G/K392G/K409M) (other, also called B240 CH3B chain) TCPPCPAPELLGGPSVFLFPPKPKDTLMISRTPEVTCVVVDVSHEDPEVKFNWYVDGVEVHNAKTKPREEQYNSTYRVVSVLTVLHQDWLNGKEYKCKVSNKALPAPIEKTISKAKGQPREPQVYTLPPSRDELTKNQVSLTCLVKGFYPSDIAVEWESNGQPENNYGTTPPVLGSDGSFFLYSMLTVDKSRWQQGNVFSCSVMHEALHNHYTQKSLSLSPGK | – | 11.9% | –
3 | FcCH3B, B212 (D399G/K392G/K409M) (other, also called B212 CH3B chain) TCPPCPAPELLGGPSVFLFPPKPKDTLMISRTPEVTCVVVDVSHEDPEVKFNWYVDGVEVHNAKTKPREEQYNSTYRVVSVLTVLHQDWLNGKEYKCKVSNKALPAPIEKTISKAKGQPREPQVYTLPPSRDELTKNQVSLTCLVKGFYPSDIAVEWESNGQPENNYGTTPPVLGSDGSFFLYSMLTVDKSRWQQGNVFSCSVMHEALHNHYTQKSLSLSPGK | – | 33.8% | –
4 | FcCH3B, B135 (K392S/K409L/D399V/F405T) (other, also called B135 CH3B chain) TCPPCPAPELLGGPSVFLFPPKPKDTLMISRTPEVTCVVVDVSHEDPEVKFNWYVDGVEVHNAKTKPREEQYNSTYRVVSVLTVLHQDWLNGKEYKCKVSNKALPAPIEKTISKAKGQPREPQVYTLPPSRDELTKNQVSLTCLVKGFYPSDIAVEWESNGQPENNYSTTPPVLVSDGSFTLYSLLTVDKSRWQQGNVFSCSVMHEALHNHYTQKSLSLSPGK | – | – | 27.9%
5 | FcCH3B, B239 (D399S/K392G/K409M) (other, also called B239 CH3B chain) TCPPCPAPELLGGPSVFLFPPKPKDTLMISRTPEVTCVVVDVSHEDPEVKFNWYVDGVEVHNAKTKPREEQYNSTYRVVSVLTVLHQDWLNGKEYKCKVSNKALPAPIEKTISKAKGQPREPQVYTLPPSRDELTKNQVSLTCLVKGFYPSDIAVEWESNGQPENNYGTTPPVLSSDGSFFLYSMLTVDKSRWQQGNVFSCSVMHEALHNHYTQKSLSLSPGK | – | 20.3% | –
6 | FcCH3B, B235 (D399C/K392G/K409M) (other, also called B235 CH3B chain) TCPPCPAPELLGGPSVFLFPPKPKDTLMISRTPEVTCVVVDVSHEDPEVKFNWYVDGVEVHNAKTKPREEQYNSTYRVVSVLTVLHQDWLNGKEYKCKVSNKALPAPIEKTISKAKGQPREPQVYTLPPSRDELTKNQVSLTCLVKGFYPSDIAVEWESNGQPENNYGTTPPVLCSDGSFFLYSMLTVDKSRWQQGNVFSCSVMHEALHNHYTQKSLSLSPGK | – | 6.9% | –
7 | FcCH3B, B168 (K392G/K409M/D399V/F405T) (other, also called B168 CH3B chain) TCPPCPAPELLGGPSVFLFPPKPKDTLMISRTPEVTCVVVDVSHEDPEVKFNWYVDGVEVHNAKTKPREEQYNSTYRVVSVLTVLHQDWLNGKEYKCKVSNKALPAPIEKTISKAKGQPREPQVYTLPPSRDELTKNQVSLTCLVKGFYPSDIAVEWESNGQPENNYGTTPPVLVSDGSFTLYSMLTVDKSRWQQGNVFSCSVMHEALHNHYTQKSLSLSPGK | – | – | 21.1%
8 | FcCH3B, A146 (E357M/D399V/F405T) (other, also called A146 CH3B chain) TCPPCPAPELLGGPSVFLFPPKPKDTLMISRTPEVTCVVVDVSHEDPEVKFNWYVDGVEVHNAKTKPREEQYNSTYRVVSVLTVLHQDWLNGKEYKCKVSNKALPAPIEKTISKAKGQPREPQVYTLPPSRDMLTKNQVSLTCLVKGFYPSDIAVEWESNGQPENNYKTTPPVLVSDGSFTLYSKLTVDKSRWQQGNVFSCSVMHEALHNHYTQKSLSLSPGK | – | – | 14.6%
9 | FcCH3B, B121 (K392E/D399V/F405T) (other, also called B121 CH3B chain) TCPPCPAPELLGGPSVFLFPPKPKDTLMISRTPEVTCVVVDVSHEDPEVKFNWYVDGVEVHNAKTKPREEQYNSTYRVVSVLTVLHQDWLNGKEYKCKVSNKALPAPIEKTISKAKGQPREPQVYTLPPSRDELTKNQVSLTCLVKGFYPSDIAVEWESNGQPENNYETTPPVLVSDGSFTLYSKLTVDKSRWQQGNVFSCSVMHEALHNHYTQKSLSLSPGK | – | – | 25.2%
10 | FcCH3B, B256 (D399V/K392G/K409M) (other, also called B256 CH3B chain) TCPPCPAPELLGGPSVFLFPPKPKDTLMISRTPEVTCVVVDVSHEDPEVKFNWYVDGVEVHNAKTKPREEQYNSTYRVVSVLTVLHQDWLNGKEYKCKVSNKALPAPIEKTISKAKGQPREPQVYTLPPSRDELTKNQVSLTCLVKGFYPSDIAVEWESNGQPENNYGTTPPVLVSDGSFFLYSMLTVDKSRWQQGNVFSCSVMHEALHNHYTQKSLSLSPGK | – | 16.7% | –
11 | FcCH3B, A109 (E357M/S364W/D399V/F405T) (other, also called A109 CH3B chain) TCPPCPAPELLGGPSVFLFPPKPKDTLMISRTPEVTCVVVDVSHEDPEVKFNWYVDGVEVHNAKTKPREEQYNSTYRVVSVLTVLHQDWLNGKEYKCKVSNKALPAPIEKTISKAKGQPREPQVYTLPPSRDMLTKNQVWLTCLVKGFYPSDIAVEWESNGQPENNYKTTPPVLVSDGSFTLYSKLTVDKSRWQQGNVFSCSVMHEALHNHYTQKSLSLSPGK | – | – | 5.8%
12 | FcCH3B, B215 (D399W/K392G/K409M) (other, also called B215 CH3B chain) TCPPCPAPELLGGPSVFLFPPKPKDTLMISRTPEVTCVVVDVSHEDPEVKFNWYVDGVEVHNAKTKPREEQYNSTYRVVSVLTVLHQDWLNGKEYKCKVSNKALPAPIEKTISKAKGQPREPQVYTLPPSRDELTKNQVSLTCLVKGFYPSDIAVEWESNGQPENNYGTTPPVLWSDGSFFLYSMLTVDKSRWQQGNVFSCSVMHEALHNHYTQKSLSLSPGK | – | 20% | –
13 | FcCH3B, EW-RVT (Q347R/D399V/F405T) (other, also called EW-RVT CH3B chain) TCPPCPAPELLGGPSVFLFPPKPKDTLMISRTPEVTCVVVDVSHEDPEVKFNWYVDGVEVHNAKTKPREEQYNSTYRVVSVLTVLHQDWLNGKEYKCKVSNKALPAPIEKTISKAKGQPREPRVYTLPPSRDELTKNQVSLTCLVKGFYPSDIAVEWESNGQPENNYKTTPPVLVSDGSFTLYSKLTVDKSRWQQGNVFSCSVMHEALHNHYTQKSLSLSPGK | – | 1.6% | 1.6%
14 | FcCH3B, A107 (E357N/D399V/F405T) (other, also called A107 CH3B chain) TCPPCPAPELLGGPSVFLFPPKPKDTLMISRTPEVTCVVVDVSHEDPEVKFNWYVDGVEVHNAKTKPREEQYNSTYRVVSVLTVLHQDWLNGKEYKCKVSNKALPAPIEKTISKAKGQPREPQVYTLPPSRDNLTKNQVSLTCLVKGFYPSDIAVEWESNGQPENNYKTTPPVLVSDGSFTLYSKLTVDKSRWQQGNVFSCSVMHEALHNHYTQKSLSLSPGK | – | – | 2.4%
15 | FcCH3B, A108 (E357I/S364T/D399V/F405T) (other, also called A108 CH3B chain) TCPPCPAPELLGGPSVFLFPPKPKDTLMISRTPEVTCVVVDVSHEDPEVKFNWYVDGVEVHNAKTKPREEQYNSTYRVVSVLTVLHQDWLNGKEYKCKVSNKALPAPIEKTISKAKGQPREPQVYTLPPSRDILTKNQVTLTCLVKGFYPSDIAVEWESNGQPENNYKTTPPVLVSDGSFTLYSKLTVDKSRWQQGNVFSCSVMHEALHNHYTQKSLSLSPGK | – | – | 13%
